Results taken from publication PMC3828522.

Columns and labels:
[1] = molecular target: Pho full-length (Drosophila melanogaster, UniProt Q8ST83 1-520); experiment: EMSA
[2] = molecular target: Pho full-length;Sfmbt 4MBT wild type (Drosophila melanogaster;Drosophila …, UniProt Q8ST83;Q9VK33 1-520;531-980, |); experiment: EMSA supershift
[3] = molecular target: T1, Sfmbt 4MBT wild type (Drosophila melanogaster, UniProt Q9VK33 531-980); experiment: EMSA
T1 sequence: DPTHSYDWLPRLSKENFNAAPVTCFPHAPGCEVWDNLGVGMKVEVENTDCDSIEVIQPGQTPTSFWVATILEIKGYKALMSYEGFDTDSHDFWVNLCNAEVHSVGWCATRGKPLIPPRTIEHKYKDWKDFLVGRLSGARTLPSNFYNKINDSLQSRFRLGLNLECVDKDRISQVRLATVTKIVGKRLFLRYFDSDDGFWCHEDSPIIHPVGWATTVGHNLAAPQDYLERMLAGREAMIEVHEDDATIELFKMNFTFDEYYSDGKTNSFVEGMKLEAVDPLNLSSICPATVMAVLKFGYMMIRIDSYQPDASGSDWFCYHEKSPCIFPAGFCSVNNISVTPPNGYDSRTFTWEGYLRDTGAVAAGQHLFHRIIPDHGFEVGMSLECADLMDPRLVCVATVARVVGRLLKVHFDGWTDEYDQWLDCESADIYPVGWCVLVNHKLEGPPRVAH

Chain of Pho full-length (Q8ST83 whole entry): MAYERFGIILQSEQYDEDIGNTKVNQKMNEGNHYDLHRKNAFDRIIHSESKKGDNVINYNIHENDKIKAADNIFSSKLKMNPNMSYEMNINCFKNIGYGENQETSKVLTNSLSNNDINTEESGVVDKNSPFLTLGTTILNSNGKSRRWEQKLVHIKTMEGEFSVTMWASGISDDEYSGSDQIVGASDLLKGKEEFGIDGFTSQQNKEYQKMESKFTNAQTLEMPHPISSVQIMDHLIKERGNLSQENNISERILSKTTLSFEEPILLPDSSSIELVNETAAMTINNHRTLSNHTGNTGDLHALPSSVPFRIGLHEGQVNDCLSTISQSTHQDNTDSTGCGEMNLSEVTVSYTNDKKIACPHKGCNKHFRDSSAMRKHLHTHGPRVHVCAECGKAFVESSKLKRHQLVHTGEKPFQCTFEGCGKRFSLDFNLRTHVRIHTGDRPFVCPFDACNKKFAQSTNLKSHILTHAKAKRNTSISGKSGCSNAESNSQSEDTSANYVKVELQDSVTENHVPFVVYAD
Chain of Pho full-length;Sfmbt 4MBT wild type (Q8ST83 whole entry, one chain of several): as the sequence (Q8ST83 whole entry) above

B1: Pho DNA-binding site probe (dsDNA)
DNA 1: CTCCGTCGCCATAACTGTCG
DNA 2: CGACAGTTATGGCGACGGAG
binding result [1]: binds
binding result [2]: binds
binding result [3]: no binding
